Test results published in paper PMC5415409 (Nature cell biology, 2017).

Target: Growth Factor Receptor-bound 2 (GRB2), endogenous in HEK cells (human (endogenous in HEK), UniProt P62993 1-217)
Assay: co-IP

Growth Factor Receptor-bound 2 (GRB2), endogenous in HEK cells, sequence (P62993 whole entry): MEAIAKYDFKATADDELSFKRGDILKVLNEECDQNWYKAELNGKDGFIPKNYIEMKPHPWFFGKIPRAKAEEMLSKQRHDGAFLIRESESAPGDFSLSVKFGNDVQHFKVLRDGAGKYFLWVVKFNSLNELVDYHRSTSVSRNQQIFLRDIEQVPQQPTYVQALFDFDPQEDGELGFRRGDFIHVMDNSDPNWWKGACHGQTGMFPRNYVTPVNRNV

B1: wild-type SWELL1 (SWELL1^WT), transiently expressed in HEK cells (natural protein, UniProt Q8IWT6 1-810, looked up)
chain: MIPVTELRYFADTQPAYRILKPWWDVFTDYISIVMLMIAVFGGTLQVTQDKMICLPCKWVTKDSCNDSFRGWAAPGPEPTYPNSTILPTPDTGPTGIKYDLDRHQYNYVDAVCYENRLHWFAKYFPYLVLLHTLIFLACSNFWFKFPRTSSKLEHFVSILLKCFDSPWTTRALSETVVEESDPKPAFSKMNGSMDKKSSTVSEDVEATVPMLQRTKSRIEQGIVDRSETGVLDKKEGEQAKALFEKVKKFRTHVEEGDIVYRLYMRQTIIKVIKFILIICYTVYYVHNIKFDVDCTVDIESLTGYRTYRCAHPLATLFKILASFYISLVIFYGLICMYTLWWMLRRSLKKYSFESIREESSYSDIPDVKNDFAFMLHLIDQYDPLYSKRFAVFLSEVSENKLRQLNLNNEWTLDKLRQRLTKNAQDKLELHLFMLSGIPDTVFDLVELEVLKLELIPDVTIPPSIAQLTGLKELWLYHTAAKIEAPALAFLRENLRALHIKFTDIKEIPLWIYSLKTLEELHLTGNLSAENNRYIVIDGLRELKRLKVLRLKSNLSKLPQVVTDVGVHLQKLSINNEGTKLIVLNSLKKMANLTELELIRCDLERIPHSIFSLHNLQEIDLKDNNLKTIEEIISFQHLHRLTCLKLWYNHIAYIPIQIGNLTNLERLYLNRNKIEKIPTQLFYCRKLRYLDLSHNNLTFLPADIGLLQNLQNLAITANRIETLPPELFQCRKLRALHLGNNVLQSLPSRVGELTNLTQIELRGNRLECLPVELGECPLLKRSGLVVEEDLFNTLPPEVKERLWRADKEQA
B1 was tested. Which “densitometry ratio SWELL1/GRB2 in the GRB2 immunoprecipitate” value did it give?
Its value is 0.31.
